{"source": "paper PMC6204036", "about": "“Myostatin and activin blockade by engineered follistatin results in hypertrophy and improves dystrophic pathology in mdx mouse more than myostatin blockade alone” (Skeletal Muscle, 2018)", "binders": {"B1": {"name": "activin A (ligand, UniProt P08476 311-426, looked up)", "chain": "GLECDGKVNICCKKQFFVSFKDIGWNDWIIAPSGYHANYCEGECPSHIAGTSGSSLSFHSTVINHYRMRGHSPFANLKSCCVPTKLRPMSMLYYDDGQNIIKKDIQNMIVEECGCS", "notes": "activin A (inhibin beta A chain), the ligand used in SPR"}}, "target": "T1, FS-EEE-mFc (human, UniProt P19883 30-344, K76 mutagenized to glutamic acid | K81 mutagenized to glutamic acid | K82 …)", "T1 construct": "follistatin FS315, human, with K76, K81 and K82 changed to glutamic acid; FS315 cDNA (Clontech) cloned in frame to murine IgG1 Fc cDNA; also called engineered follistatin; FST-EEE-mFc", "T1 sequence (P19883 other isoform, or with tags, fused parts or gaps with the stated changes)": "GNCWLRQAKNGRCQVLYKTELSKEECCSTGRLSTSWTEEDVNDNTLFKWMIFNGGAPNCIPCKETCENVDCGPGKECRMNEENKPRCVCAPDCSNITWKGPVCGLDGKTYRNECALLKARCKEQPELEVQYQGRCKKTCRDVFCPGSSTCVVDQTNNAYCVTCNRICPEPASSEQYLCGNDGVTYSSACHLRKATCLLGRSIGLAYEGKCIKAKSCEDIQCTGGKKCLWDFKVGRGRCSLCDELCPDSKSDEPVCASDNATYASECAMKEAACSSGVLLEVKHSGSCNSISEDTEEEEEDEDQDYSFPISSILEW", "test": "SPR; surface plasmon resonance method as in ref. 48; which partner was immobilised and the conditions are not told", "conditions": "both partners purified"}
{"binder": "B1", "values": [{"measurement": "Kd", "result": 6.1, "unit": "pM"}]}
